Tests used:
Histone H3.1 = Histone H3.1 (UniProt P68431)
Histone H4 = Histone H4 (UniProt P62805)
Histone H3.3 = Histone H3.3 (UniProt P84243)

wild type SIRT6 polypeptide (sirtuin 6)
histone acetylation/methylation PTM profile by LC-MS/MS in 3T3-L1 adipocytes (Histone H3.1): Overexpression of SIR6 wt or SIRT6cent in 3T3-L1 led to changes in the acetylation profiles of histones H3.1, H3.2 and H4
histone acetylation PTM profile by LC-MS/MS in 3T3-L1 adipocytes (Histone H4): Overexpression of SIR6 wt or SIRT6cent in 3T3-L1 led to changes in the acetylation profiles of histones H3.1, H3.2 and H4
histone acetylation/methylation PTM profile by LC-MS/MS in 3T3-L1 adipocytes (Histone H3.3): significant difference between AdiWT and AdiCent at the levels of lysines (K) ... K27, K36 and K37 in H3.3

Source: US20260199524
